Measurements: the nanobody polyreactivity screen of Harvey et al. (2022)

Assay: yeast display, Sf9 membrane polyspecificity reagent, FACS + sequencing; frameworks hold sequencing errors
Outline: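 In a synthetic yeast display library (Saccharomyces cerevisiae BJ5465), nanobody expression was induced with galactose for 36–48 hours. FACS gates were set low and high (top ~1%) using anti-HA fluorescence for expression and streptavidin fluorescence for binding of the Sf9 membrane reagent. Each polyreactivity label is drawn from the gate of origin.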

QVQLVESGRGLVQAGGSLRLSCAPSGSTIQDYAMGWYRQAPGKERELVAAISWRSDITYYAESVKGRFTISRDNAKNTVYLQMNSLKPEDTAVYYCAADNSYHWLDREFDYEFDYWGQGTQVTVSS
polyreactivity (PSR sort gate): high polyreactivity

QVQLVESGGGLVQAGGSLRLSCAASGFIFAKYAMGWYRQAPGKERELVAAITSGGSTNYADSVKGRFTISRDNAKNTVYLQMNSLKPEDTAVYYCNRGFDWWYRYRHYDYWGQGTQVTVSS
polyreactivity (PSR sort gate): low polyreactivity

QVQLVESGGGLVQAGGSLRLSCAASGRIFVYNAKGWYRQAAGKERELVAAISYTGGTTYYADSVKGRFTISRDNAKKTVYLQMKSLKPEDTAVFFCAALWWWNRQVRYEYWGQGTQVTVSS
polyreactivity (PSR sort gate): low polyreactivity

QVQIVKSGGGLVQAGGSLRLSCAASGFIIPEYTMGWYRQAPGKERELVAAISGSGGSTYYADSVKGRFTISRDNAKNTVYLQMNSLIPEDTAVYYCIAPVYTADGYRYGSVRFGYWGQGTQVTVSS
polyreactivity (PSR sort gate): low polyreactivity

QVQLVESGGGLVQAGGSLRLSCAASGSNIERNAMGWYIQAPGKERELVANITWSGVSTYYADSVKGRFTISRDNAKNTVYLQMNSLKPEDTAVYYCNADYSYRHWYDPGQYGQAMGYWGQGTQVTVSS
polyreactivity (PSR sort gate): low polyreactivity

QVQLVESGGGLVQAGGSLRLSCAASGGIFTFNDMGWYRQAPGKERELVAAISRRGGSTYYADSVKGRFTISRDNAKNTVFLQMNSLKPEDTAVYYCAASSRRQRSEPYYYWGQGTQVTVSS
polyreactivity (PSR sort gate): high polyreactivity

QVQLGESGGGLVQAGGSLRLSCAASGSTFIDYAMGWYRQAPGKERELVAAITNGGNTKYADSVKGRFTISRDNAKNTVYLQMNSLKPEDTAVYYCAKYYYTSIVGYDSWGQGTQVTVSS
polyreactivity (PSR sort gate): low polyreactivity

QVQLVESGGGLVQAGGSLRLSCAASGRTFPYYAMGWYRQAPGKERELVAAISSSGGRTYYADSVKGRFTISRDNAKNTVYLQMNSQKPEDTAVYYCAAQTPGVYLRQIGGYYYWGQGTQVTVSS
polyreactivity (PSR sort gate): low polyreactivity

QVQLVDSGGGLVQAGGSLRLSCAASGRTFYAYAMGWYRQAPGKERELVATISSSDASTYYADSVKGRFTISRDNAKKTVYLLMNSLKPEDTAVYYGNADFVRPSWARGRNNGLYYWGQGTQVTVSS
polyreactivity (PSR sort gate): low polyreactivity

QVQLVESGGGLVQAGGSLRLSCAAYGSTYGTNALGWYRQAPGKERELVAAITSRVGRTYYADSVKGRFTISRDNAKNTVYLQMNSLKPEDTAVYYCAASRLVRYQSRYGSWGQGTQVTVSS
polyreactivity (PSR sort gate): high polyreactivity

KVQLVESGGGLVQAGGSLRLSCAASGSIFYVNAMGWYRQAPGKERELVARITLSGTSTYYADSVKGRLTISRDNAKNTVYLQMNSLKPEDTAVYYCAATYWSWISLRFYWGQGTQVTVSS
polyreactivity (PSR sort gate): low polyreactivity

QVQLVESGGGLVQAGGSLRLSCAASGFTFISKAMGWYRQAPGKERELVAAISSSGGRTYYADSVKGRFTISRDHAKYTVYLQMNSLKPEDTALYYCNADRSLLYSRKIEYDYWGQGTQVTVSS
polyreactivity (PSR sort gate): low polyreactivity

QVQLVESGGGLVQAGGSLRISCAASGFSCRQYAMGWYRQAPGKERELVAAISSSGGRTYYADSVKGRFTISRDNAKNTVYLQMNSLKPEDTAVYYCIARAWLRVEYGEGYWGQGTQVTVSS
polyreactivity (PSR sort gate): high polyreactivity

QVQLVESGGGLVQAGGSLRLSCAASGNIFVGNDMGWYRQAPGKERELVAAISSGDTTSYADSVKGRFTISRDNAKNTVYLQMNSLKPEDTAVYYCNTDAPYLLWFTNRYDYWGQGTQVTVSS
polyreactivity (PSR sort gate): low polyreactivity

QVQLQESSGGLVQAGGSLRMSCAASGTIFHFHIMGWYRQAPGKEREFVAAISYGTSTYYADSVKGRFTISRDNAKKTVYLQMNSQKPEDTAVYYCAVYDDLEVYCWYWGQGTEVTVSS
polyreactivity (PSR sort gate): low polyreactivity

QVKLVESGGGLVQAGGSLRLSCAASGSTFPTNAMVCYRQAPGKERELVAGITEGGSSTYYADSVKGRFTISRDNAKNTVYLQMNSLKPEVTAVYYCAADVLWYGPFWVRQDDYWGQGTQVTVSS
polyreactivity (PSR sort gate): high polyreactivity

QVQHVESGGGLVQAGGSLRLSCAASGFTFRRYAMGWYRQAPGKERELVAAISINGGSTYYADSVKGRFTISRDNAMNTVYLQMNSLKPEDTAVYYCNKGSVRGEYDYWGQGTLVTVSS
polyreactivity (PSR sort gate): high polyreactivity

QVQLVESGGGLVQAGGSLRLSCAASGSIFGAYAMGSYRQAPGKERELVASISDGGGTYYADSVKGRFTISRDNAKNTVYLQMNSLKPEDTAVYYCAADPPKRVPGGYWGQGTQVTVSS
polyreactivity (PSR sort gate): low polyreactivity

QVQLVESGGGLVQAGGSLRLSCAASGSIFVRNAMGWYRQAPGKERELVATITRRGGRTYYADSVKGRFTISRDNAKNTVYLQMNSLKPEDTAVYYCAARVRTATRRFTSYYWGQGTQVTVSS
polyreactivity (PSR sort gate): high polyreactivity

QFQLVESGGGLVQAGGSLRLSCAASASTYYYYVMGWSIQAPVKEREVVAAITRSTGSTYYADSVKGRFTISRDNAKNTVYLNKNSLKPEETSVYYCAAEGPKWYYSGAFDYWGQGSQVTVSS
polyreactivity (PSR sort gate): low polyreactivity

QVQLVESGGGLVQAGGSLRLSCADSGLIFTANDRGWYRQAPGKERELVADISKSGSSTYYADSVKGRFTISRDNAKNTVYLQMNSLKPEDTAVYYCNADYLTYFTTFDYWGQGTQVTVSS
polyreactivity (PSR sort gate): low polyreactivity

QVQLVESGGGLVQAGGSLRLSCAASGSPFYNYAMGWYRQAPGKERELVAAIRNGGGTNYADSVKGRFTISRDNAKNTVYLQMNSLKPEDTAVYDCNKAYGVSGTGVDYWGQGTQVTVSS
polyreactivity (PSR sort gate): low polyreactivity

QVQLVESGGGLVQAGGSLRLSCAASGRIFFTYAMGWYRQAPGKERELVAAIDRSGTSTYYADSVKGRFTISRDNAKNTVYLQMNRLKPEDTAVYNCAARPNPNYDEMDYWGQGTQVNVSS
polyreactivity (PSR sort gate): low polyreactivity

QVQHVESGGGLVQAGGSLRLSCAASGGIFYYNTMGWYRQAPGKERELVAAITGGGRTNYADSVKGRFTISRDNAKNTVYLQMNSLKPEDTAVYYCNAVYWRTRMDYWGQGTQVTVSS
polyreactivity (PSR sort gate): high polyreactivity

QVQLVESGGGIVQAGGSLRLSCAASGFTFYYKAMGWYRQAPGKERELVAAISRGGRTNYADSVKGRFTISRDNAKNTVYLEMNSLTPADTAVYYCAADRYNGVYAVYYYGYDYWGQGTKVTVSS
polyreactivity (PSR sort gate): high polyreactivity

QVQLVESGGGLVQAGGSLRLSCAASGRIFRHNAMGWYRQAPGKERELVAAISGGGTTYYADSVKGRFTISRDNAKNTVYLQMNSVKPEDTAVYYCAARRRGSVGVGYAYPYNYWGQGTQVTVSS
polyreactivity (PSR sort gate): high polyreactivity

QVQLVESGGGLVQAGGSLRLSCAASGFTFGSYAMGWYRQAPGKERELVAAITRSGGGTYYADSVKGRFTISRDNAKNTVYLQMNSLKPEDTSVYYCAAGALQRGVYGFGYWGQGTQVTVSS
polyreactivity (PSR sort gate): high polyreactivity

QVQLVESGGGFVKAGGSLRLSCASSGSIFYSYAMGWYRQAPGKEREFVAAISWSASRTYYADSVKGRFTISRDNAKNTVYLQMNSLKPEDTAVYDCAARTYYNSGYYYWGQGTQVTVSS
polyreactivity (PSR sort gate): high polyreactivity

QVQLVESGGGLVQAGGSLRLSCAASGITFDRNVMGWYRKSPGKETELVAAISKSGGRTYYADSVKGRFTISRDIAKNTVYLQMNSLKTEDTAVYDCNADFYSRKSLHQYDYWGQGTQVTVSS
polyreactivity (PSR sort gate): high polyreactivity

QVQLVESGGGLVQAGGSLRLSCAASGIFTRYVMGWYRQAPGKERELVAAITANGGRTYYADSVKGRFTISRDNAKNTVYLQMNSLKPEDTAVYYCNADWRWKWSSRGGYWGQGTQVTVSS
polyreactivity (PSR sort gate): high polyreactivity

QVQLVESRGGLVQAGGSLRLSCAASGSTFSANTMGWNRQAPGKERELVAGITNTGDTYYADSVKGRFTLSRDNAKNTVYLQMNSLKPEDTAVYYCAADSWRLTDGAYWSTVYYWGQGNQVTVSS
polyreactivity (PSR sort gate): low polyreactivity

QVQLVETGGGLVQAGGSLRLSCAASGITFASYAMGWYRHAPGKEREFVATITTGGTNTYYADSVKGRFTLSRDNAKKTVYLQMNSQKPEDTAVYYCAADSTPYVLSGNYDYWGQGTQVTVSS
polyreactivity (PSR sort gate): low polyreactivity

QVQLEESGGGLVQAGGSLRLSCAASGGTFDYYAMGWYRQAPRKERELVAVINWSGGRTYYADSVKGRFTISRDNAKNTVYLQMNSLKPEDTAVYYCAAQRPPGQTWNRDYWGQGTQVTVSS
polyreactivity (PSR sort gate): high polyreactivity

QVQLVESGGALVQAGGSLRLSCAACGRTFWYNAMGWYRQAPGKERELVAAITRGGGRTYYADSVKGRFTISRDNAKNTVYLQMNSLKPEDTAVYYCAADSYYDMNYWGQGTQVTVSS
polyreactivity (PSR sort gate): low polyreactivity

QVQLVESGGGLVQAGGSLRLSCAASGFIFAYYAMGWYRQAPGKERELVAAITIDGSTNYADSVKGRFTISRDNAKNTVYLQMNSLKPEDTAVYYCAAADHPPVWYGYWGQGTQVTVSS
polyreactivity (PSR sort gate): low polyreactivity

QVQLVESGGGLVHAGGSLRLSCAAYGSIFSKYVMGGSREAPGKERELVAAISWSGTRTYYADSVMGRFTISRDNAKNTVYLQMNSLKPEDTAVYYCAARRLYSGHQYDYWGQGTQVTVSS
polyreactivity (PSR sort gate): high polyreactivity

QVQLVESGGGLVQAGGSLRLSCAASGFTFSVYVIGWYRQAPGKERELVAAISSGGDTTYADSVKGRFTISRDNAKNTVYLQMNSLKPEDTAVYYCADYRVILYYLYDYWGQGTQVTVSS
polyreactivity (PSR sort gate): low polyreactivity

QVQLVESGGGLVQAGGSLRLSCAASGSTFGLYGMGWYRQAPGKDRELVAAITWSGGSTYYADSVKGRFTISRDNAKNTVYLQMNSLKPEDTAVYYSNADYYYWFSYGIGDNEYDYWGQGTQVTVSS
polyreactivity (PSR sort gate): low polyreactivity

QVQLVESGGGLVQAGGSLRLSCAASGSTFAFNAMGWYRQAPGKERELVAGITWSSGSTYYADSVKGRFTISRDNAKNTVYLQMNSLKPEDTAVYYCAVSGTRTIWGQGTQVTVSS
polyreactivity (PSR sort gate): high polyreactivity

QVQLVESGGGLVQAGGSLRLSCAASGSTSDSYAMGWYRQAPGKERELVAAISRGTNTYYADSVKGRFTISRDNAKNTVYLQLNRLKPEDTAVYYCNKVQYLRKYWVTPTGQRFGYWGQGTQVTVSS
polyreactivity (PSR sort gate): high polyreactivity

QVQLVESGGGLVQAGGSLRLSCAASGSIFFARYAMGWYRQAPGKERELVAAITRATSTTYADSVKGRFTISRDNAKNTVYLQMNSLKPEDTAVYYCAATKIGGGSFRPYYYWGQGTQVTVSS
polyreactivity (PSR sort gate): high polyreactivity

QVQLVESGGGLVQAGGSLRLSCAASGSIFGLYAMGWYRQAPGKEREFVASITYSGGSTYYADSVKGRFTISRDNAKNTVYLQMTSLKPEDTAVYYCAAESYWGYDYWGQGTQVTVSS
polyreactivity (PSR sort gate): high polyreactivity

QVQLVESGGGLVQAGGSLRLSCAASGRIFEIYAMGWYRQAPGKERELVAAITDSGGSTYYAYSVKGRFTISRDNAKNTVYLQINSLKPEDTAVYYCAAVGYSYETWLFYYWGQGTQVTVSS
polyreactivity (PSR sort gate): low polyreactivity
